Measurements: patent WO2016071355A1 (dated 2016)
Changes are numbered by the printed parent chain. Names and notes keep the numbering of the source.

Key:
[1] = target: T1, soluble extracellular region of human CD38 fused to a 6-His-tag (human, UniProt P28907 43-300); assay: SPR, antibody captured on protein G, CD38-His injected
T1 construct: also called human CD38 extracellular domain with a poly-histidine tag; human CD38 antigen

Protein A = target: T2, Protein A (Staphylococcus aureus, UniProt P38507 212-269); assay: protein A affinity chromatography
T2 construct: The resin ligand is a commercial recombinant Protein A derivative

Protein G = Protein G (UniProt P19909 303-497); assay: protein G affinity chromatography, SDS-PAGE
[2] = target: T1, soluble extracellular region of human …; assay: SPR
[3] = target: T3, soluble extracellular region of cynomolgus monkey CD38 antigen fused to a 6-His-tag (cynomolgus monkey, UniProt Q5VAN0 45-301); assay: SPR
T3 construct: also called cynomolgus CD38

human CD38 on cells = human CD38 on cells (human, UniProt P28907 1-300); assay: cell-based or functional assay

B1: humanized HB-7 best-fit antibody (antibody, human IgG1, kappa, V domains shown)
VH: QVQLQESGPGLVKPSETLSLTCTVSGFSLISYGVHWVRQPPGKGLEWLGVIWRGGSTDYNAAFMSRLTISKDNSKNQVSLKLSSVTAADTAVYFCAKTLITTGYAMDYWGQGTLVTVSS
VL: DIQLTQSPSSLSASVGDRVTITCRASEDIYNRLAWYQQKPGKAPKLLISGATSLETGVPSRFSGSGSGKDYTLTISSLQPEDFATYYCQQYWSTPTFGQGTKLEIKR
notes: Human IgG1 format
Q: For B1, which Kd [1] is on record?
A: 3.6 nM

B2: BTB homodimer construct lacking the VH3 based scFv (other)
chain: DKTHTCPPCPAPEAAGGPSVFLFPPKPKDTLMISRTPEVTCVVVDVSHEDPEVKFNWYVDGVEVHNAKTKPREEQYNSTYRVVSVLTVLHQDWLNGKEYKCKVSNKALPAPIEKTISKAKGQPREPEVATFPPSRDELTKNQVTLVCLVTGFYPSDIAVEWESNGQPENNYKTDPPLLESQGSFALSSRLRVDKSRWQQGNVFSCSVMHEALHNHYTQKSLSLSPGK
Q: Which results are given for B2?
A: binding result (Protein A): no binding; binding result (Protein G): no binding

B3: first humanized 9G7 antibody prototype (antibody, human IgG1, kappa, V domains shown)
VH: QVTLKESGPTLVKPTQTLTLTCTFSGLSLSTSGKGVGWIRQPPGKALEWLAHIWWDDDKRYNPALKSRLTITKDTSKNQVVLTMTNMDPVDTATYYCARIELGRSYVMDYWGQGTLVTVSS
VL: DIQMTQSPSSLSASVGDRVTITCQASQDVITSVAWFQQKPGKAPKLLIYSASYRYTGVPSRFSGSGSGTDFTFTISSLQPEDIATYYCQQHYTIPLTFGQGTKLEIKR
notes: Human IgG1 isotype; also called first antibody prototype; first humanized prototype
Q: What does the source list for B3?
A: Kd [2]: 1 nM; fold lower binding than the mouse parental antibody [2]: 3 fold

B4: humanized 9G7 best-framework antibody (antibody, human IgG1, kappa, V domains shown)
VH: EVQLVESGGGLVQPGGSLRLSCAFSGLSLSTSGKGVGWIRQAPGKGLEWLAHIWWDDDKRYNPALKSRLTISKDTSKNTVYLQMNSLRAEDTAVYYCARIELGRSYVMDYWGQGTLVTVSS
VL: B3 VL with Q24R, F73L, I83F, L104V
notes: Human IgG1
Q: Which results are given for B4?
A: Kd [1]: 0.4 nM; Kd [3]: 1 nM

B5: humanized 9G7 best-fit antibody (antibody, human IgG1, kappa, V domains shown)
VH: B3 VH
VL: B3 VL with F36Y
notes: Human IgG1; also called 9G7 best-fit F36Y humanized variant
Q: How did the Kd [1] turn out when B5 was run?
A: 0.5 nM

Q: And the Kd [3]?
A: 3.2 nM

Q: And the “fold improvement of affinity over the first humanized prototype” value [2]?
A: 2 fold

B6: BEAT CD38-9G7Mouse/CD3 (bispecific antibody, human IgG1, kappa, L234A L235A)
heavy: not shown
light: DIVMTQSHKFMSTSVGDRVSISCKASQDVITSVAWFQQKPGQSPKLLIYSASYRYTGVPDRFTGSGSGTDFTFTISSVQAEDLAVYYCQQHYTIPLTFGAGTKLELKRTVAAPSVFIFPPSDEQLKSGTASVVCLLNNFYPREAKVQWKVDNALQSGNSQESVTEQDSKDSTYSLSSTLTLSKADYEKHKVYACEVTHQGLSSPVTKSFNRGEC
scFv: EVQLVESGGGLVQPGGSLRLSCAASGYTFTRYTMHWVRQAPGKGLEWIGYINPSRGYTYYADSVKGRFTLSTDKSKNTAYLQMSSLRAEDTAVYYCARYYDDHYCLDYWGQGTLVTVSSGGGGSGGGGSGGGGSDIQLTQSPSSLSASVGDRVTITCRASSSVSYVAWYQQKPGKAPKRWIYDTSKLYSGVPSRFSGSGSGTDYTLTISSLQPEDFATYYCQQWSSNPPTFGQGTKVEIKGGGGTDKTHTCPPCPAPEAAGGPSVFLFPPKPKDTLMISRTPEVTCVVVDVSHEDPEVQFKWYVDGVEVHNAKTKPREEQYNSTFRVVSVLTVLHQDWLNGKEYKCKVSNKALPAPIEKTISKTKGQPREPEVATFPPSREEMTKNQVTLVCLVTGFYPSDIAVEWESSGQPENNYNTDPPLLESDGSFALSSRLRVDKSRWQQGNIFSCSVMHEALHNRFTQKSLSLSPGK
Q: For B6, which “EC50, killing of Daudi cells (flow cytometry, PBMCs, 48h)” value (human CD38 on cells) is on record?
A: 0.0032 nM

B7: BEAT CD38-OKT10Mouse/CD3 (bispecific antibody, human IgG1, kappa, L234A L235A)
heavy: QVELVESGGSLKLSCAASGFDFSRSWMNWVRQAPGKGLEWIGEINPDSSTINYTTSLKDKFIISRDNAKNTLYLQMTKVRSEDTALYYCARYGNWFPYWGQGTLVTVSSASTKGPSVFPLAPSSKSTSGGTAALGCLVKDYFPEPVTVSWNSGALTSGVHTFPAVLQSSGLYSLSSVVTVPSSSLGTQTYICNVNHKPSNTKVDKKVEPKSCDKTHTCPPCPAPEAAGGPSVFLFPPKPKDTLMISRTPEVTCVVVDVSHEDPEVKFNWYVDGVEVHNAKTKPREEQYNSTYRVVSVLTVLHQDWLNGKEYKCKVSNKALPAPIEKTISKAKGQPREPAVYTLPPSRDELTKNQVKLVCLVTGFYPSDIAVEWESNGQPENNYYTTPPVLDSDGSFSLVSWLNVDKSRWQQGNVFSCSVMHEALHNHYTQKSLSLSPGK
light: DILMTQSQKIMPTSVGDRVSVTCKASQNVDTNVAWYQQKPGQSPKALIYSASYRYSGVPDRFTGSGSGTDFTLTITNVQSEDLAEYFCQQYDSYPLTFGAGTKLDLKRTVAAPSVFIFPPSDEQLKSGTASVVCLLNNFYPREAKVQWKVDNALQSGNSQESVTEQDSKDSTYSLSSTLTLSKADYEKHKVYACEVTHQGLSSPVTKSFNRGE
scFv: B6 scFv
Q: For B7, which “EC50, killing of Daudi cells (flow cytometry, PBMCs, 48h)” value (human CD38 on cells) is on record?
A: 0.126 nM

B8: chimeric HB-7 antibody (antibody, human IgG1, kappa, V domains shown)
VH: KVQLQESGPSLVQPSQRLSITCTVSGFSLISYGVHWVRQSPGKGLEWLGVIWRGGSTDYNAAFMSRLSITKDNSKSQVFFKMNSLQADDTAIYFCAKTLITTGYAMDYWGQGTTVTVSS
VL: DIELTQSPSSFSVSLGDRVTITCKASEDIYNRLAWYQQKPGNAPRLLISGATSLETGVPSRFSGSGSGKDYTLSITSLQTEDVATYYCQQYWSTPTFGGGTKLEIKR
Q: How did the Kd [1] turn out when B8 was run?
A: 2.5 nM

B9: BEAT CD38-HB7bestfit/CD3 antibody (bispecific antibody, human IgG1, kappa, L234A L235A)
heavy: QVQLQESGPGLVKPSETLSLTCTVSGFSLISYGVHWVRQPPGKGLEWLGVIWRGGSTDYNAAFMSRLTISKDNSKNQVSLKLSSVTAADTAVYFCAKTLITTGYAMDYWGQGTLVTVSSASTKGPSVFPLAPSSKSTSGGTAALGCLVKDYFPEPVTVSWNSGALTSGVHTFPAVLQSSGLYSLSSVVTVPSSSLGTQTYICNVNHKPSNTKVDKKVEPKSCDKTHTCPPCPAPEAAGGPSVFLFPPKPKDTLMISRTPEVTCVVVDVSHEDPEVKFNWYVDGVEVHNAKTKPREEQYNSTYRVVSVLTVLHQDWLNGKEYKCKVSNKALPAPIEKTISKAKGQPREPAVYTLPPSRDELTKNQVKLVCLVTGFYPSDIAVEWESNGQPENNYYTTPPVLDSDGSFSLVSWLNVDKSRWQQGNVFSCSVMHEALHNHYTQKSLSLSPGK
light: DIQLTQSPSSLSASVGDRVTITCRASEDIYNRLAWYQQKPGKAPKLLISGATSLETGVPSRFSGSGSGKDYTLTISSLQPEDFATYYCQQYWSTPTFGQGTKLEIKRTVAAPSVFIFPPSDEQLKSGTASVVCLLNNFYPREAKVQWKVDNALQSGNSQESVTEQDSKDSTYSLSSTLTLSKADYEKHKVYACEVTHQGLSSPVTKSFNRGEC
scFv: EVQLVESGGGLVQPGGSLRLSCAASGYTFTRYTMHWVRQAPGKGLEWIGYINPSRGYTYYADSVKGRFTLSTDKSKNTAYLQMSSLRAEDTAVYYCARYYDDHYCLDYWGQGTLVTVSSGGGGSGGGGSGGGGSGGGASDIQLTQSPSSLSASVGDRVTITCRASSSVSYVAWYQQKPGKAPKRWIYDTSKLYSGVPSRFSGSGSGTDYTLTISSLQPEDFATYYCQQWSSNPPTFGQGTKVEIKGGGGTDKTHTCPPCPAPEAAGGPSVFLFPPKPKDTLMISRTPEVTCVVVDVSHEDPEVQFKWYVDGVEVHNAKTKPREEQYNSTFRVVSVLTVLHQDWLNGKEYKCKVSNKALPAPIEKTISKTKGQPREPEVATFPPSREEMTKNQVTLVCLVTGFYPSDIAVEWESSGQPENNYNTDPPLLESDGSFALSSRLRVDKSRWQQGNIFSCSVMHEALHNRFTQKSLSLSPGK
Q: With B9 as the binder, how does the Kd [1] read?
A: 3.2 nM

Q: What about the “EC50, T cell redirected killing of RPMI 8226 myeloma cells (RDL-FACS, purified T cells, 48h)” value (human CD38 on cells) of the same binder?
A: 0.0022 nM

B10: BEAT CD38-HB7bestfit/CD3(SP34) antibody (bispecific antibody)
heavy: QVQLQESGPGLVKPSETLSLTCTVSGFSLISYGVHWVRQPPGKGLEWLGVIWRGGSTDYNAAFMSRLTISKDNSKNQVSLKLSSVTAADTAVYFCAKTLITTGYAMDYWGQGTLVTVSSASTKGPSVFPLAPSSKSTSGGTAALGCLVKDYFPEPVTVSWNSGALTSGVHTFPAVLQSSGLYSLSSVVTVPSSSLGTQTYICNVNHKPSNTKVDKKVEPKSCDKTHTCPPCPAPEAAGGPSVFLFPPKPKDTLMISRTPEVTCVVVDVSHEDPEVQFKWYVDGVEVHNAKTKPREEQYNSTFRVVSVLTVLHQDWLNGKEYKCKVSNKALPAPIEKTISKTKGQPREPAVYTLPPSREEMTKNQVKLVCLVTGFYPSDIAVEWESSGQPENNYYTTPPMLDSDGSFSLVSWLNVDKSRWQQGNIFSCSVMHEALHNRFTQKSLSLSPGK
light: B9 light
scFv: not shown
Q: How did the “EC50, T cell redirected killing of Daudi cells (RDL-FACS, PBMCs, 24h)” value (human CD38 on cells) turn out when B10 was run?
A: 0.0018 nM
